Results published in PMC7665200, “Mus81-Mms4 endonuclease is an Esc2-STUbL-Cullin8 mitotic substrate impacting on genome integrity” (Nature Communications, 2020).

Molecular target: T1, GST-Esc2 (Saccharomyces cerevisiae, UniProt Q06340 1-456)
T1 construct: Esc2, Saccharomyces cerevisiae, full-length gene cloned into BamHI/SalI of pGEX-6P-2; pGEX-6P-2 should place GST at the N-terminus (surmised from the vector); also called recombinant glutathione S-transferase (GST)-Esc2; GST-tagged Esc2; source: E. coli BL21 (DE3), purified (glutathione-Sepharose 4B, eluted with reduced glutathione, dialysed)
T1 sequence (looked up): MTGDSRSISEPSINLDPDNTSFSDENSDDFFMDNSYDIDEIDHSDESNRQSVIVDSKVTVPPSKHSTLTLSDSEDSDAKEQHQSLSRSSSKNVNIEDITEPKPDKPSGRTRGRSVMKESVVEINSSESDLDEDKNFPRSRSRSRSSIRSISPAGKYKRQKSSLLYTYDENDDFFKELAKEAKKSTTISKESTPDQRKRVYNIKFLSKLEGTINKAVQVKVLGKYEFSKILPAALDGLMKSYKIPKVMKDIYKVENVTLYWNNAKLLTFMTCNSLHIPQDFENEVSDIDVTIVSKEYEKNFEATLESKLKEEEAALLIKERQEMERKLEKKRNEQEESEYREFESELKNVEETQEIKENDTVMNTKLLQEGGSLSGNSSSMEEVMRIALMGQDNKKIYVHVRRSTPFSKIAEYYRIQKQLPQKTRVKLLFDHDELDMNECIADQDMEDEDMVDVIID
Assay: peptide or protein array; PEPperPRINT microarray of 15-aa peptides covering the entire Mms4 and Mus81 with 14-aa overlaps, printed in duplicate; purified GST-Esc2 in solution, detected with anti-GST DyLight680
Conditions: both partners purified

B1: Mms4 peptide RSKKSSQVGKLGIKK (peptide)
peptide: RSKKSSQVGKLGIKK
notes: 15-aa stretch of Mms4, S. cerevisiae; Immobilised on the array; It is printed as the 'consensus motif' of a response peak of overlapping 15-mers; source: synthetic peptide, printed on a peptide microarray (PEPperPRINT GmbH)
  binding result: binds

B2: Mus81 peptide EKGTKKRKTRKYIPK (peptide)
peptide: EKGTKKRKTRKYIPK
notes: 15-aa stretch of Mus81, S. cerevisiae; Immobilised on the array; It is printed as the 'consensus motif' of a response peak of overlapping 15-mers; source: synthetic peptide, printed on a peptide microarray (PEPperPRINT GmbH)
  binding result: binds
